Test results reported in the nanobody polyreactivity screen of Harvey et al. (2022).

Assay: yeast display, Sf9 membrane polyspecificity reagent, FACS + sequencing; frameworks hold sequencing errors
Method in brief: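 In a synthetic yeast display library (Saccharomyces cerevisiae BJ5465), nanobody expression was induced with galactose for 36–48 hours. FACS gates were set low and high (top ~1%) using anti-HA fluorescence for expression and streptavidin fluorescence for binding of the Sf9 membrane reagent. Each polyreactivity label is drawn from the gate of origin.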

Row | Sequence | polyreactivity (PSR sort gate)
1 | QVQLVESGGGLVQAGGSLRLSCAASGSTFPTNAMGWYRQAPGKERELVAAISQRGDSTSYADSVKGRFTISRDNAKNTVYLQMNSLKPEDTAVYYCAARPLYSYSQWGYGYWGQGTQVTVSS | high polyreactivity
2 | QVQLVESGGGLVQAGGSLRLSCAASGSTFPTNTMGWYRQAPGKERELVAAITGGGSTYYADSVKGRFTISRDNAKNTVYLQMNSLKPEDTAVYYCAADDSWFYYGYGYWGQGTQVTVSS | low polyreactivity
3 | QVQLVESGGGLVQAGGSLRLSCAASGSTFPTYAMGWYRQAPGKERELVAAISFSGARTYYADSVKGRFTISRDNAKNTVYLQMNSLKPEDTAVYYCAKASSYSRRYEYWGQGTQVTVSS | high polyreactivity
4 | QVQLVESGGGLVQAGGSLRLSCAASGSTFPVYAMGWYRQAPGKERELVAAISWRGDSTYYADSVKGRFTISRDNAKNTVYLQMNSLKPEDTAVYYCAASTGSVVRRYYYWGQGTQVTVSS | high polyreactivity
5 | QVQLVESGGGLVQAGGSLRLSCAASGSTFPVYAMGWYRQAPGKERELVARISSGSSTNYADSVKGRFTNSRDKAKNTVYLQMNSLKPEDTAVSYCAAQTPRFVWQKGPLDSEEYWGQGTQVTVSS | high polyreactivity
6 | QVQLVESGGGLVQAGGSLRLSCAASGSTFPVYDMGWYRQAPGKERELVAAITAGVSTNYADSVKGRFTISRDNAKNTVYLQMNSQKPEDTAVYYCAKDFGLLPIRDDYWGQGTQETVSS | low polyreactivity
7 | QVQLVESGGGLVQAGGSLRLSCAASGSTFPVYVMGWYRQAPGKERELVATITIVVSTKYADSVKGRFTISRDNAKNTVYLQMNSLKPEDTAVYYCAKDDVYRDSYLVFDGEMDYWGQGTQVTVSS | low polyreactivity
8 | QVQLVESGGGLVQAGGSLRLSCAASGSTFPWNAMGWHRQAPGKERELVAAISKSGGRTYYADSVKGRFTISRDNAKNTVYLQMNSLRPEDTAVYYCNALGSLDGRYGYWGQGTQVTVSS | high polyreactivity
9 | QVQLVESGGGLVQAGGSLRLSCAASGSTFPWNAMGWYRQAPGKERELVAAISSGGSTNYADSVKGRFTISRDNAKNTVYLQMNSLKPEDTAVYYCNAYYWSDSRGKYDYWGQGTQVTVSS | low polyreactivity
10 | QVQLVESGGGLVQAGGSLRLSCAASGSTFPYNAMGWYRQAPGKERELVAAITSAGGTNYADSVKGRFTISRDNAKNTVYLQMNSLKPEDTAVYYCAADGSGYYDWYYYWGQGTQVTVSS | low polyreactivity
11 | QVQLVESGGGLVQAGGSLRLSCAASGSTFPYNAMGWYRQAPGKERELVAVITTVGSTYYADSVKGRFTISRDNAKNTVYLQMNSLKPEDTAVYYCAAANTQSPGYDYWGQGTQVTVSS | low polyreactivity
12 | QVQLVESGGGLVQAGGSLRLSCAASGSTFPYNAMGWYRQAPGKEWELVAAISQSGGSTYYADSVKGRFTISRDNAKNTVYLQMNSLKPEDTAVYYCATDQSLLAHYDYWGQGTQVTVSS | low polyreactivity
13 | QVQLVESGGGLVQAGGSLRLSCAASGSTFPYNVMGWYRQAPGKEREFVAAISSSSGSTYYADSVKGRFTISRDNAKNTVYLQMNSLKPEDTAVYYCARRHPRQRQDGKVDYWGQGTQVTVSS | low polyreactivity
14 | QVQLVESGGGLVQAGGSLRLSCAASGSTFPYVMGWSRQAPGKERELVAAISQRTGSTYYADSVKGRFTSSRDNAKNTVYLQMNSLKPEDTAVYYCAKPGYLRPSRYDYWGQGTQVTVSS | high polyreactivity
15 | QVQLVESGGGLVQAGGSLRLSCAASGSTFPYVMGWYRQAPGKERELVAAISWSGTSTYYADSVKGRFTISRDNAKNTVYLQMNSLKPEDTAVYYCNVVYRVVSPSGGGYWGQGTQVTVSS | high polyreactivity
16 | QVQLVESGGGLVQAGGSLRLSCAASGSTFPYYALGLYRQAPGKERELVAAISRGGGITYYADSVKGRFSISRDNAKNTVYLQMNCLKPEDTAVYYCAAYTAAEQGYNYWGQGTQVTVSS | high polyreactivity
17 | QVQLVESGGGLVQAGGSLRLSCAASGSTFPYYAMGWYRQAPWKERELVAAIRRRTGSTHYADSVKGRFSISRDNAMNTVYLQMNSLKQEDTAFYYCAADVSYRGNGHGYWGQGTQVNVSS | low polyreactivity
18 | QVQLVESGGGLVQAGGSLRLSCAASGSTFPYYAMGWYRQEPGKERELVASIRKRGGGTYYADSVKGRFTISRDNAKNTVYLQMNSLKPEDTAVYYCAVRVYQFRYTGYDYWGQGTQVTVSS | high polyreactivity
19 | QVQLVESGGGLVQAGGSLRLSCAASGSTFPYYTMGWYRQAPGKERELVAAITWRGGRTYYADSVKGRFTISRDNAKNTVYLQMNSLKPEDTAVYYCAAKQKHTQQTGWKYEYWGQGTQVTVSS | high polyreactivity
20 | QVQLVESGGGLVQAGGSLRLSCAASGSTFPYYVMGWYRQAPGKERELVASIRSNSGRTYYADSVKGRFTISRDNAKNTVYLQMNSLKPEDTAVYYCNAGVPRYAYTYVKGYYWGQGTQVTVSS | high polyreactivity
21 | QVQLVESGGGLVQAGGSLRLSCAASGSTFQFYAMGWYRQAPGKEREFVAAIDFGGAGTYYADSVKGRFTISRDTAKNTVYLQMNSLKPEDTAVYYCNARDGVTSEFDYWGQGTQVTVSS | low polyreactivity
22 | QVQLVESGGGLVQAGGSLRLSCAASGSTFQFYAMGWYRQAPGKERELVAAIRSSDDSTYYADSVKGRFTISRDNAKNTVYLQMNSLKPEDTAVYYCAAVQDYYGVWYDYWGQGTQVTVSS | high polyreactivity

Row | Sequence | polyreactivity (PSR sort gate)
23 | QVQLVESGGGLVQAGGSLRLSCAASGSTFQFYAMGWYRQAPGKERELVAAISVSGDRTYYADSVKARFTISRDNAKNTVYLQMNSLKPEDSAVYYCAARYGPFKRRFDYWGLGTQVTVSS | high polyreactivity
24 | QVQLVESGGGLVQAGGSLRLSCAASGSTFQGNAMGWYSQAPGKERELVAAISRSGGSTYADSVKGRFTISRDNAKNTVYLQMNSLKPEDTAVYYCAAYSGVGYLWFDYWGQGTQVTVSS | low polyreactivity
25 | QVQLVESGGGLVQAGGSLRLSCAASGSTFQGYAMGWYRPAPGTERELVAAINYSGGSTYYADSVKGRFTISRDNAKNTVYVLMNSLKPEDTAVYYCAVKLRSRAGTSYGYWGQGTQVTVSS | high polyreactivity
26 | QVQLVESGGGLVQAGGSLRLSCAASGSTFQGYAMGWYRQAPGKEREFVAAISRSGGRTYYADSVKGRFTISRDNAKNTVYLQMNSLKPEDTAVYYCAALPYWEYGYWGQGTQVTVSS | high polyreactivity
27 | QVQLVESGGGLVQAGGSLRLSCAASGSTFQGYAMGWYRQAPGKERELVAVINRSGTNTYYADSVKGRFTISRDNAKNTVYLQMNSLKPEDTAVYYCNAQPSSKPPTYYYWGQGTQVTVSS | high polyreactivity
28 | QVQLVESGGGLVQAGGSLRLSCAASGSTFQIYTMGWYRQAPGKERELVAAITNGGGSTYYADSVKGRFTISRDNAKNTVYLQMNSLKPEDTAVYYCAAEQRYPLIILYDYWGQGTHVTVSS | low polyreactivity
29 | QVQLVESGGGLVQAGGSLRLSCAASGSTFQIYVKGWYRQAPGKERELVAAISGSGVRTYYADSVKGRFTISRDTAKNTVYIQMHSLKPEDTAVYYCAVDYKSDWAYDYWGQGTQVTVSS | high polyreactivity
30 | QVQLVESGGGLVQAGGSLRLSCAASGSTFQLYAMGWYRQAPGKEREFVAAIRGRGGNTYADSVKGRFTISRDNAKNTVFLQMNSLKPEDTAVYYCAAPLLRDLRSPYSYNYWGQGTQVTVSS | low polyreactivity
31 | QVQLVESGGGLVQAGGSLRLSCAASGSTFQPYAMGWYRQAAGNEREFVATISGSAGSTNYADSVKGRFTTSRDNAKSTVYLQMNSLKPEDTALYYCNALYRYLYRSGDYWGQGNQVTVSS | low polyreactivity
32 | QVQLVESGGGLVQAGGSLRLSCAASGSTFQQYAMGWYRQAPGKEREFVARISYGGGSTYYADSVKGRFTISRDNAKNTVYLQMNSLKPEDTAVYYCNAVRKGYYRWVFQNRYYYWGQGTQVTVSS | high polyreactivity
33 | QVQLVESGGGLVQAGGSLRLSCAASGSTFQQYAMGWYRQAPGKERELVAAITGSTGSTYYADSVKGRFTISRDNAKNTVYLQMNSLKPEDTAVYYCNAVRYSRYYRKYNYWGQGTQVTVSS | high polyreactivity
34 | QVQLVESGGGLVQAGGSLRLSCAASGSTFQRNTMGWYRQAPGKERELVADITWSGGNTYYADSVKGRFTISRDNAKNTVYLQMNSLKPEDTAVYYCAAQNVRVGWHASTSYPCPLDYWGPGTQVTVSS | low polyreactivity
35 | QVQLVESGGGLVQAGGSLRLSCAASGSTFQRYAMGGSRQAPGKERELVAAITAGGSTYYADSVKGRFTISRDNAKNTVYLQLNSLKPEDTAVYYCNAAWFYRYGYWGQGTQVTVSS | high polyreactivity
36 | QVQLVESGGGLVQAGGSLRLSCAASGSTFQRYAMGWYRQAPGKERELVASISTSGGSTYYAHSVKGRFTISRDNAKNTVYLQMNSLKPEDTAVYYCAAQGWSRQVREGWIKRDYWGQGTQVTVSS | high polyreactivity
37 | QVQLVESGGGLVQAGGSLRLSCAASGSTFQRYVMGWYRPAPGKERELVAAITRTGASTYYADSVKGRFTISRDYAKNTVDLQMNSRKPEDTAGYYCAARYPLGSYTYDFWGQGTQVTVSS | high polyreactivity
38 | QVQLVESGGGLVQAGGSLRLSCAASGSTFQSNAMGGYRQAPGKERELVAAISSSAGTTFYADSVKGRFTISRDNAKNTVYLQMNSLKPEDTAVYYCAAEYSRSYIEYDYWGQGTQVTVSS | low polyreactivity
39 | QVQLVESGGGLVQAGGSLRLSCAASGSTFQSNAMGWYRQAPGKERELVAAINSGTSTYYADSVKGRFTISRDNAKNTVYLQMNSLKPEDTAVYYCAADGIWGEYYYSELGDYDYWGQGTQVTVSS | low polyreactivity
40 | QVQLVESGGGLVQAGGSLRLSCAASGSTFQSYAMGWYRQAPGKERELVAAISTSDTDRTYYADSVKGRFTISRDNAKNTVYLQMNSLKPEDTAVYYCNAEGTYRPEYDSWGQGTQVTVSS | low polyreactivity
41 | QVQLVESGGGLVQAGGSLRLSCAASGSTFQSYAMGWYRQAPGKERELVAGITSGDSTNYADSVKGRFTISRDNAKNTVYFQMISLKPEDTAVYYCNAVTQASYYYWGQGTQVTVSS | low polyreactivity
42 | QVQLVESGGGLVQAGGSLRLSCAASGSTFQSYAMGWYRQAPWKERELVAAITTTGTRTYYADSVKGRFTISRDNAKNTVYLQMNSLKPEDTAVYYCNAQRLQAHRTSRRYGYWGQGTQVTVSS | high polyreactivity
43 | QVQLVESGGGLVQAGGSLRLSCAASGSTFQTNAMGWYRQAPGKERELVAAINSGGGTNYADSVKGRFTFSRDNAKYTVYLQMNSLKPEDSAVYYCAAAYFDFWGWLHDYWGQGTQVTVSS | low polyreactivity
